Experimental findings from patent US20240124607A1 (Merck Sharp & Dohme, published 2024) are described below.

For experiment [1], the target named is T1, human CEACAM8 on Ba/F3 cells (human, UniProt P31997 35-320).
T1 construct: whole, on cells
T1 sequence (looked up): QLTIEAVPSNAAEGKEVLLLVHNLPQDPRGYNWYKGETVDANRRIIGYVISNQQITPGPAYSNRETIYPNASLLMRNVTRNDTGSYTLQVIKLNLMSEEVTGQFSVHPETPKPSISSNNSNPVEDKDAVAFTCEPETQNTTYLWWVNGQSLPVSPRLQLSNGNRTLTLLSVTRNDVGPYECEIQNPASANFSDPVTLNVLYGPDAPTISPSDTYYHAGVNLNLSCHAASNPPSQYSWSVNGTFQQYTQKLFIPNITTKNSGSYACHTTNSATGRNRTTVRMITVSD
In words: flow cytometry on Ba/F3 cells expressing human CEACAM8, fold over background (FOB), 5-fold dilutions from 1600 nM. The method, then:
To examine the binding specificity of the TriNKETs to CEACAM5 compared to other CEACAM family members, Ba/F3 cells were engineered to express one of human CEACAM1, CEACAM6, CEACAM8, or cynomolgus CEACAM5. CEACAM5 TriNKETs were evaluated by flow cytometry starting at 1600 nM followed by 7 5-fold dilutions.

In another experiment the target is T2, Human CEACAM5 (E398) (human, UniProt P06731 35-685, limits assumed).
T2 construct: also called hCEACAM5
T2 sequence: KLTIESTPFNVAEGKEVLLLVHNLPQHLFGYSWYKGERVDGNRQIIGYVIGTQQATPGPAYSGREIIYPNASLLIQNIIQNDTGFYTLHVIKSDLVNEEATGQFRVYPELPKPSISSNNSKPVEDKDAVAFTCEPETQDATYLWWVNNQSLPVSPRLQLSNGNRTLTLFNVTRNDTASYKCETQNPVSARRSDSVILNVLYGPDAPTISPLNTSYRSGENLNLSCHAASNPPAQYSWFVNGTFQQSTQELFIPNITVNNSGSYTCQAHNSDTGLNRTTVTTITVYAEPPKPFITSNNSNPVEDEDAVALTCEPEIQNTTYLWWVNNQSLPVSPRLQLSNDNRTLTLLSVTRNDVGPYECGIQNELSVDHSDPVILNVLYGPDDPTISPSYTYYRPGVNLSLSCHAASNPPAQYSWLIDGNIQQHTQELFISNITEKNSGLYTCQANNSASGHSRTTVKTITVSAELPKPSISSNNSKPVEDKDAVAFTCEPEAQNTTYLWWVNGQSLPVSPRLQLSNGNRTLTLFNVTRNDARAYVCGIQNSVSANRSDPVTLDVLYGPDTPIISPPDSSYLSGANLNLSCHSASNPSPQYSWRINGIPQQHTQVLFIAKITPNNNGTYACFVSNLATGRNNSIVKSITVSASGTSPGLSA
Briefly: SPR, 37C, pH 7.4.

Experiment [2] has as its target T3, Cyno FcγRIIIA (cynomolgus monkey, UniProt Q8SPW2 17-208, limits assumed, biotinylated).
T3 construct: also called cynomolgus CD16A
Briefly: SPR, biotin-CD16A on SA chip, 25C, pH 7.4. The method, then: (§1) Binding to human and cynomolgus CD16A was assessed using biotinylated CD16A captured on a streptavidin (SA) sensor chip (Cytiva, #BR100531). AB0411, AB0466, or AB0621 was titrated from 1500 nM at 25° C. at 30 μL/min for 150 sec association followed by 300 sec dissociation. The surface of the chip was regenerated with 2 mM sodium hydroxide for 5 sec at 30 μL/min. Running buffer was HBS-EP+. […] The V158 isoform bound ˜2- to 3-fold tighter than the F158 isoform as expected.

For experiment [3], the target named is human CD16A (FcγRIIIA) F158 (human, UniProt P08637 17-208, limits assumed, biotinylated). In words: SPR, biotin-CD16A on SA chip, 25C, pH 7.4. The method, then:
as §1

Experiment [4] deals with T4, human CD16A (FcγRIIIA) V158 (human, UniProt P08637 17-208, limits assumed, biotinylated in the assay of Table 21).
T4 construct: also called CD16A (V158/V176)
T4 sequence (P08637 17-208 F176V limits assumed): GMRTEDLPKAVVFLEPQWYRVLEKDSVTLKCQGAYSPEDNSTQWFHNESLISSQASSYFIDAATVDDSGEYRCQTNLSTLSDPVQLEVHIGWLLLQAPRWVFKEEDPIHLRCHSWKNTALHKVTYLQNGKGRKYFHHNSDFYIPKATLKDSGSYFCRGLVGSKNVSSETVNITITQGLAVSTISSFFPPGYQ
In words: SPR, biotin-CD16A on SA chip, 25C, pH 7.4. The method, then: as §1

Experiment [5] addresses T3, Cyno FcγRIIIA. In words: SPR, biotin-CD16A on SA chip, 25C, pH 6.0. The method, then:
as §1

Experiment [6] has as its target T4, human CD16A (FcγRIIIA) V158. In words: SPR, biotin-CD16A on SA chip, 25C, pH 6.0. The method, then:
as §1

Experiment [7] deals with T5, soluble mouse Fc-human NKG2D dimer (human, UniProt P26718 78-216, limits assumed).
T5 construct: also called NKG2D-mFc; human NKG2D fused to a mouse Fc
T5 sequence (looked up): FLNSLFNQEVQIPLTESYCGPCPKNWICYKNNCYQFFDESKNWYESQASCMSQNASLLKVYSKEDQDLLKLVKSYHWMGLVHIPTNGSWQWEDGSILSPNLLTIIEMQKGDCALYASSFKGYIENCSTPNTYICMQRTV
In words: SPR, NKG2D-mFc captured, 37C, pH 6.0. The method, then:
(§2) Binding to NKG2D was assessed by SPR using a mouse Fc capture kit (Cytiva, #BR100838) immobilized onto a CM5 chip. Human and cynomolgus NKG2D fused to a mouse Fc were captured and AB0411, AB0466, or AB0621 was titrated from 600 nM.

A further experiment addresses T6, Cyno NKG2D-mFc (cynomolgus monkey, UniProt P61252 78-216, limits assumed).
T6 construct: also called cynomolgus NKG2D fused to a mouse Fc
T6 sequence (looked up): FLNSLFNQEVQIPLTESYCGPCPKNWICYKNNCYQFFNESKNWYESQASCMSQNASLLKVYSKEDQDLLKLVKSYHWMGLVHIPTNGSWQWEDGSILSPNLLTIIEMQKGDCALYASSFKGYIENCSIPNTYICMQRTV
In words: SPR, NKG2D-mFc captured, 37C, pH 6.0. The method, then:
as §2

Sequence of human CD16A (FcγRIIIA) F158 (P08637 17-208 limits assumed): as the sequence (P08637 17-208 F176V limits assumed) above, with V160F counted along it
T3 sequence (Q8SPW2 17-208 limits assumed): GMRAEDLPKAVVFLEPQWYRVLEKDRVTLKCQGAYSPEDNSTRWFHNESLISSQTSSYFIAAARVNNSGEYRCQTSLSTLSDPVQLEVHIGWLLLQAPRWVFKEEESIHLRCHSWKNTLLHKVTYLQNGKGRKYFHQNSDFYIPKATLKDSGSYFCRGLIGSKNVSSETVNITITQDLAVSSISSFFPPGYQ

B1: AB0621 F3' CEACAM5 TriNKET (bispecific antibody, human IgG1, kappa)
chain: DIVMTQSPDSLAVSLGERATINCKSSHSLLYGNFQNNYLAWYQQKPGQPPKLLIYWASTRESGVPDRFSGSGSGTDFTLTISSLQAEDVAVYYCQQYYSYPYTFGCGTKLEIKGGGGSGGGGSGGGGSGGGGSQVQLVQSGAEVKKPGASVKVSCKASGYTFTAYTIHWVRQAPGQCLEWMGYINPSSGYTEYNQKFKDRTTLTADTSISTAYMELSRLRSDDTAVYYCTREGGLLWFDYWGQGTLVTVSSGSDKTHTCPPCPAPELLGGPSVFLFPPKPKDTLMISRTPEVTCVVVDVSHEDPEVKFNWYVDGVEVHNAKTKPREEQYNSTYRVVSVLTVLHQDWLNGKEYKCKVSNKALPAPIEKTISKAKGQPREPRVYTLPPCRDELTKNQVSLTCLVKGFYPSDIAVEWESNGQPENNYKTTPPVLVSDGSFTLYSKLTVDKSRWQQGNVFSCSVMHEALHNHYTQKSLSLSPG
heavy: EVQLVESGGGLVKPGGSLRLSCAASGFTFSSYSMNWVRQAPGKGLEWVSSISSSSSYIYYADSVKGRFTISRDNAKNSLYLQMNSLRAEDTAVYYCARGAPIGAAAGWFDPWGQGTLVTVSSASTKGPSVFPLAPSSKSTSGGTAALGCLVKDYFPEPVTVSWNSGALTSGVHTFPAVLQSSGLYSLSSVVTVPSSSLGTQTYICNVNHKPSNTKVDKKVEPKSCDKTHTCPPCPAPELLGGPSVFLFPPKPKDTLMISRTPEVTCVVVDVSHEDPEVKFNWYVDGVEVHNAKTKPREEQYNSTYRVVSVLTVLHQDWLNGKEYKCKVSNKALPAPIEKTISKAKGQPREPQVCTLPPSRDELTENQVSLTCLVKGFYPSDIAVEWESNGQPENNYKTTPPVLDSDGSFFLYSWLTVDKSRWQQGNVFSCSVMHEALHNHYTQKSLSLSPG
light: DIQMTQSPSSVSASVGDRVTITCRASQGISSWLAWYQQKPGKAPKLLIYAASSLQSGVPSRFSGSGSGTDFTLTISSLQPEDFATYYCQQGVSFPRTFGGGTKVEIKRTVAAPSVFIFPPSDEQLKSGTASVVCLLNNFYPREAKVQWKVDNALQSGNSQESVTEQDSKDSTYSLSSTLTLSKADYEKHKVYACEVTHQGLSSPVTKSFNRGEC
As to B1, the binding result in [1] is “no binding (tested: 1600 nM)”. Moreover, the Kd with Human CEACAM5 (E398) is 17 nM; with Cyno FcγRIIIA [2], 160 nM; in [3], 640 nM; in experiment [4], 280 nM; with Cyno FcγRIIIA [5], 25 nM; in experiment [6], 58 nM. Also, the Kd in [7] was determined as 240 nM; with Cyno NKG2D-mFc it was 300 nM. Further, the kon with Human CEACAM5 (E398) came out at 100000 M⁻¹ s⁻¹; in the experiment with Cyno FcγRIIIA [2] it was 720000 M⁻¹ s⁻¹; in [3], 300000 M⁻¹ s⁻¹; in experiment [4], 260000 M⁻¹ s⁻¹; in [6], 690000 M⁻¹ s⁻¹; in experiment [7] it was 240000 M⁻¹ s⁻¹. For the same molecule, the on-rate (kon) with Cyno NKG2D-mFc came out at 150000 M⁻¹ s⁻¹. Besides, the off-rate constant (koff) with Cyno FcγRIIIA [2] came to 0.11 s⁻¹; in experiment [3] it was 0.19 s⁻¹; in experiment [4], 0.072 s⁻¹; in [6], 0.04 s⁻¹; in experiment [7], 0.056 s⁻¹; with Cyno NKG2D-mFc, 0.045 s⁻¹.
